Three substances from article PMC8381054 can be followed below.

Test [1] concerns the target recombinant wild-type human C3d with its native thioester cysteine intact (C3d^17C) (human) (UniProt P01024). As to the kind of experiment: SEC; size exclusion chromatography of C3d^17C in solution (Supplementary Figure S2); monomer and disulphide-linked dimer.
For test [2] the target is unchanged. The test is described as follows: non-reducing SDS-PAGE; recombinant C3d^17C 'under non-reducing conditions', 'in a similar manner' to C3b (Supplementary Figure S2, not shown).
Test [3] addresses human CR2(SCR1-4)-Fc (human).

On to “recombinant wild-type human C3d with its native thioester cysteine intact (C3d^17C) (from UniProt P01024 996-1303) (domain or fragment)”, for which the stoichiometry N in test [1] and in test [2] was 2 each time.

In test [3], “human C3d with a Cys to Ala mutation at position 17(C3d)/1010 (pre-pro C3) (C3d^17A) (from UniProt P01024 996-1303) (domain or fragment)” came in with a geometric mean EC50 of upregulation of CD69 on CD19+ B cells in human PBMC, with anti-IgM F(ab')2 of 139 nM and a geometric mean EC50 of upregulation of CD86 on CD19+ B cells in human PBMC, with anti-IgM F(ab')2 of 59 nM.

As to “chemically-linked dimeric C3d^17C (from UniProt P01024 996-1303)”, in test [3], the geometric mean EC50 of upregulation of CD69 on CD19+ B cells in human PBMC, with anti-IgM F(ab')2 stood at 47 nM and the geometric mean EC50 of upregulation of CD86 on CD19+ B cells in human PBMC, with anti-IgM F(ab')2 was 18 nM.

The term stoichiometry N denotes a count of units in the complex or per binding partner.
